Reference: the supplement of paper PMC9170038

Test system: K4 kissing-loop RNA reporter
Assay: apparent KD of K4 kissing-loop reporter; higher = weaker reporter binding
Conditions: Eterna round: R107
Protocol: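 RNA-MaP round R107: designed RNA switches with theophylline, tryptophan, arginine or FMN aptamers are transcribed on-chip within common flanks. They are titrated with a labelled K4 kissing-loop RNA reporter in RNA-MaP buffer (100 mM Tris pH 7.5, 80 mM KCl, 4 mM MgCl2), without ligand or with the indicated ligand. Median apparent KD per design.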

[1] = input ligand: theophylline 20 uM
[2] = input ligand: tryptophan 2.4 mM
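Further: bound reporter read as fluorescence of individual clusters on recovered sequencing chips by microscopy, with normalized cluster intensities fitted with a binding model.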

| Sequence | apparent KD of K4 kissing-loop reporter (input ligand: FMN 200 uM) [nM] | apparent KD of K4 kissing-loop reporter (input ligand: arginine 13.2 mM) [nM] | apparent KD of K4 kissing-loop reporter (input ligand: none) [nM] | apparent KD of K4 kissing-loop reporter [1] [nM] | apparent KD of K4 kissing-loop reporter [2] [nM] |
| --- | --- | --- | --- | --- | --- |
| AAUACACUGUCGGCCGCCACUCUCGGCUGCAGUGUGCAGGGACAUGAGUGAUGUUUAUGUCGCGUGAGGACCGGGACUGAUGUAU [KL-SSTryp-B1 #analogue] | 326 | 257 | 312 | 326 | 209 |
| AGACUACCACACUGUCAAUAGACAGUGAACUAGGAUAUGCUGAUAAGCAGAAGGAGUGAUGUUCCUAGGUAGUCAAUAAAAUAAU [FmnAX 13 #SwitchBubble #StaticStem #K4Early] | 349 | 350 | 383 | 447 | 401 |
| GGGAGUAGUGCGGCCGCCACUGUGAAAGAAGAAGAAUAUAGUGAUGUUAUAUAGGAAGGGAAGAAUAGGACCGGGCAUUAGAUUU [SSTRyptB.aA] | 186 | 355 | 417 | 190 | 186 |
| AUGGGUCCACGAAGGAGCGCCGUGGAGUGAUGUUCCGGUUAGAUCCAGUGAUGUUGGGCCCGGCAGGUAGGUCGCGUGGACUCAU [Exclusion Arginine B GF 23] | 720 | 522 | 586 | 729 | 533 |
| CCUAUCUCAUACGAUACCAGUGAAUUUAUAUUUAUAAGCAGUGAUGUUGCAUUCCAAGUACACCCUUGGCAGCGUAUGGGAUAGG [Ex Theophylline B K4 21] | 197 | 203 | 213 | 168 | 161 |
| UGUGUUGUUUUGAUGUUUGUUGUAAGUUGGCAGGAUAUCGUAGAGGCGAGAAGGGCUUUUAUGCGUUAUGAGUGAUGUUUGUAGG [ggbgzmullin] | 353 | 241 | 357 | 351 | 319 |
| GUAGCACUCGAUAGUGAUGUUAUCGAGGGCAAGGAUAUCACCUCAGUGAGAAGGUGUCCUUGAUAACUGCUACGGGAAUAUCCCA [Omei KL FMN A Exc D v8] | 270 | 90.9 | 101 | 106 | 99.6 |
| CCAGGUGGAAAAGGAUAUCUAGGAGUGAUGUUCCAUAUGAAAUUAGUUUAUCACCAAACGUCGACCAGAGAAGGUUUCCCAAUUU [theeternabot_exclusion_KL_FMN_B_31] | 246 | 252 | 287 | 489 | 254 |
| UUAGAGAUCUCAGGAUAUCAGUGAUGUUGUGAUCCAGAUCUGAGAUAGAAUUCUAUCUCAGAUCAAUGAGAAGGGAGAUCUCAUU [AK4.3 Exc FMN B] | 721 | 1200 | 1490 | 878 | 1090 |
| AGCCAGGAACUUGCAACCUGGCUGCUGGAUACCAGCUCGGAAACGAGCCCUUGGCAGCCAGUACUUGCAGUGAUGUUGCAAGUUC [Design13] | 72.2 | 37.3 | 153 | 25.9 | 290 |
| UAUAUACAUAGAUAGUUGUAUAUCGAGGAAGGAGCGUGCGCAGGCACAGGUAGGUCGCCUCAGCGCACGAGUGAUGUUCGUGGGC [Tezale] | 247 | 168 | 267 | 241 | 246 |
| UGAUACCAGACGGCCGCCACUCCUGCAGUCAAAGACUGCUAGGAAAUAUUCGUCCAGUGAUGUUGGAGGACCGGGUCUGGUAUCU [TrypBX 10 #SwitchBubble #Palindromic #StaticStem] | 791 | 600 | 740 | 633 | 894 |
| AUGCUUUUAAUAACACUAUAUACAACUGAAGGAGCGACAAUAAAGUCAGGUAGGUCGCAGAAUAAAUGAGUGAUGUUCAUUUUUA [JR_ExcArginiA_Sub009] | 82.2 | 130 | 92.2 | 119 | 63.9 |
| AGAUUCGGCACGGCCGCCACUUCCGGUGGCUGGUGUCAUGGUGCGCGUGAGUGAUGUUUAUGUGGGAGGACCGGGUGUUGAGUCU [whbob_Ex_Tryp_B_w43] | 974 | 411 | 898 | 592 | 603 |
| UGGAGUUGACGAAAAGUCAACUCCUGAGAUACCAGUGACGAAGGUCACCCUUGGCAGCUCACUGCUAGUGAUGUUGGUAGUUAAA [whbob_SS_Theo_A_w50] | 1050 | 502 | 797 | 773 | 829 |
| GGGAAACCCAAUCAUACGGCGGUUCUUAGUCGAGGACCGGUACGGCCGCCACUCGAACUUGCUAGUGAUGUUAGCUUAUCGAGCU | 221 | 296 | 253 | 265 | 162 |
| ACGCGCGCGAGUGAUGUUCGGAGCGGCUGGCAGGAUAUGUAGCAAUGCAGAAGGGUCGUGGCGGCGCGGCCGUAAGGCGGCGCCG [#2 Exclusion - FMN A Attempt #14 (HarryS)] | 173 | 310 | 404 | 535 | 237 |
| UGUGUUGUAUGACGGUUUGUCACUUAGUAUUAGGAUAUAUAAACAAAUAGAAGGGAUGGCGGAGUGAUGUUCCGCCGGCCGCCAU [FMN A Exl V10] | 92.3 | 92.9 | 80.8 | 94 | 97.6 |
| ACGUAGUUCUAGGAUACCAGCCAAAUAGCCAGGACGAGAGUCCUGGCUGCCAGUGAUGUUGGCCCUUGGCAGCCUAGAUCUUCUU [zmodel 1] | 161 | 136 | 144 | 218 | 149 |
| AGUGAUAUAUGAGGAUAUGGGAUAGUUAAUGAGUUAGUUUUAGUGUUGUUUGGUUAGUGAUGUUAUUUAGAAGGCGUGAGUGAUG [tptymullin] | 107 | 74.3 | 76.7 | 106 | 74.4 |
| UACUAUAGUGAUGUUAUAGAUAAACCAGAUACCAGUGUAACAUAACACCCUUGGCAGCUGAUGAGGGAACAUAUGAAAACAUAUG [AstroSTH-A#6newdesignED4.78] | 254 | 209 | 256 | 215 | 222 |
| GCGUCCAUGUAUGAUACCAGACUUUUUUUAGUAGGUGACGAUAGUGAUGUUAUACGUCAAGUCCCUUGGCAGCAUGACCUAUUAU [theeternabot_exclusion_KL_Theo_B_23] | 423 | 461 | 418 | 694 | 587 |

| Sequence | apparent KD of K4 kissing-loop reporter (input ligand: FMN 200 uM) [nM] | apparent KD of K4 kissing-loop reporter (input ligand: arginine 13.2 mM) [nM] | apparent KD of K4 kissing-loop reporter (input ligand: none) [nM] | apparent KD of K4 kissing-loop reporter [1] [nM] | apparent KD of K4 kissing-loop reporter [2] [nM] |
| --- | --- | --- | --- | --- | --- |
| CUACGACAGGAAGGAUAUCGUGUGGAGAGCAGUUAUUUAAAGGUAGUGAUGUUACAGGAGACUGUUCGAGAAGGUCCUCAGUUAC [theeternabot_exclusion_KL_FMN_B_32] | 104 | 98.6 | 119 | 93.3 | 103 |
| CAUUCUAAAUGCAGUGAUGUUGCAACUGAUACCAGUAUCGAAAGAUACCCUUGGCAGCGGAAAACCGCUACGUUUUUUUAGAAUG [Ex Theophylline A K4 23] | 264 | 369 | 352 | 438 | 243 |
| AAGUGAUGUUGUAGUGAUGUUGUGAUGUUGCAGGAUAUAUAGUGAUGUAGAAGGGUAUGUACUGAUUUUUUUUUUGAGUGAUGUU [awaqmullin] | 99.2 | 43 | 77.3 | 58.8 | 79.9 |
| GCCGUAGAUGGAAGGAGCGUGGUUAAUGUAAGUGAUGUUUACGAGGUUAACAAUUAACCGCCACAGGUAGGUCGCCAUCUACGGC | 72.8 | 62.8 | 77.5 | 58.6 | 73.8 |
| GCCGUAGAUUGAAGGAGCGACAUAAACGAUGUUCUGGUAGUGAUGUUACCUUAGCAGGCAUGUCAGGUAGGUCGCAAUCUACGGC | 238 | 133 | 209 | 162 | 176 |
| GUCCCAGUGAUGUUGGUAGGCGAGCGGGAUACCAGCCAAGACUCAGGCCCUUGGCAGCCCACAUAUCCCACGUAGGGAGUAGCUC [Same State - Theophylline A (Freestyle 18)] | 269 | 172 | 210 | 274 | 209 |
| AAAUUUGCCACUGAUACCAGCCAGUGAUGUUGGCGGUAGUUCUAUGGUACCAUACAUUGUGGCCCUUGGCAGCAGGGCACAGAGC [Raxeisra] | 115 | 99.8 | 92.7 | 115 | 113 |
| AUGCGCGUGCGAUGCAAAUCGCACGCGCAUCGAGGACCGGUACGGCCGCCACUCGCUCGCGCCGAGUGAUGUUCGGCCGGCGAAC [#2 Same State - Tryptophan A Attempt #6 (HarryS)] | 258 | 243 | 269 | 327 | 565 |
| CCACUAUUCUUGUCGGAGUGAUGUUCCGAUACCAGCAUAGAGAUGUGCCCUUGGCAGCGGUCUAUUCUACGCCCGUCUAUUUCAA [Somari] | 165 | 125 | 135 | 157 | 148 |
| CCGAAGAACCAGUGAUGUUGGUUGACUAGACAGGAUAUGAGCAACAUCAGAAGGGUCUGGCUUCGGGAGUGGGUCGCGCUGACCU [Geeredin] | 276 | 136 | 845 | 371 | 206 |
| GCAUCCAUGGCAGGAUAUAGCUGAGUGAUGUUCAGGACCCAGUCAGUAUCCAUUACUACUGGACUUCUAGAAGGGCCAUGGAUGC | 231 | 192 | 288 | 288 | 246 |
| CGGACUGCAGGAAGGAGCGGCGGACGGAGUGAUGUUCCGGGUAGUGAUGUUACCAAACACCGCCAGGUAGGUCGCCUGUUGCUCC [Same State Arginine B GF8] | 161 | 134 | 170 | 146 | 147 |
| AGGUUUUGAUUAGGAUAUGCACUGAGGACGAGAAUAUAGUGAUGUUAUAUAAUAGGAAUUAGUAGAGUAGAAGGGAUUGAGGUUU [SSFMNB.V] | 244 | 153 | 183 | 194 | 161 |
| UGAUACCAGACGGCCGCCACUCCUGCAAGUCAAAGACUUGCUAAAGGAAUCGUCCAGUGAUGUUGGAGGACCGGGUCUGGUAUCU [TrypBX 18 #SwitchBubble #Palindromic #StaticStem] | 1040 | 745 | 1160 | 890 | 602 |
| UUUUUAUUCAGUGAUGUUGAAUUUAUAACAGAGGAUAUGCAUAAAAGCAGAAGGCUGAAAUACUAUACUUUAAUAAAUUAUAUUU [JR_SSFMNA_Sub016] | 214 | 274 | 261 | 326 | 192 |
| UUUAACGAGUGAUGUUCGAAGAGUAAGGGUGAGGAUAUCGAUUUUUCGAGAAGGCGCCUCGAAGUGAUACGAAAGUAUCGCUUCG [FMN A 7] | 246 | 224 | 269 | 269 | 215 |
| UACAUAUAAUUAUUUCUACAUUUAUUUAGUCAGGAUAUCGAUUAAACGAGAAGGGACAAUAUCAAGUGAUGUUUGAUAAUUCAAA [JR_ExcFMNA_Sub010] | 84.6 | 127 | 75.4 | 112 | 58.6 |
| GGAUAGGACAGAGGAUAUGGAGCUAGGCAAGAAUAACUUGUCUAGCAAUCCAUGAGGAGUGAUGUUCCAGAAGGCUGUCCUAUCG [FmnBX 2 - #SwitchBubble #StraticStem #DoubleMagnetSystem] | 825 | 156 | 155 | 163 | 116 |
| UGAUACCAGACUGAUACCAGCCAGUGAUGUUGGCUGAAAUCAGGGUCAAAGACCCUGUCUGGCCCUUGGCAGCAGUCUGGUAUCU [TheoBX 19 #SwitchBubble #StaticStem] | 329 | 251 | 291 | 332 | 281 |
| UGUGUUUACCUGACUCAGUGAUGUUGAGAAGGAGCGUGCGAAUGCACAGGUAGGUCGCUCAACCUAAAUUCAGGUGAGCACUAAA | 303 | 76.4 | 408 | 656 | 724 |
| GGAGUUACCUGGGAUACCAGUCGGAGUCCGAGAGCUCGGAGUGAUGUUCUGGGAUGUUUCGGCCCUUGGCAGCUCUGGGACUCCC [#2 Exclusion - Theophylline B Attempt #10 (HarryS)] | 220 | 181 | 241 | 249 | 198 |
